The values that follow come from patent US20240327506A1, “METHODS AND COMPOSITION FOR THE SELECTIVE ENHANCEMENT OF ADOPTIVE CELL THERAPY” (MaineHealth, priority 2023, published 2024).

The test has as its target T1, β3 integrin (Mus musculus, UniProt O54890+P43406).
T1 construct: we isolated primary CD8+ T-cells from melanoma bearing mice; endogenous in cells; host or cells: primary CD8+ T-cells isolated from melanoma bearing mice
T1 sequence (O54890 26-787): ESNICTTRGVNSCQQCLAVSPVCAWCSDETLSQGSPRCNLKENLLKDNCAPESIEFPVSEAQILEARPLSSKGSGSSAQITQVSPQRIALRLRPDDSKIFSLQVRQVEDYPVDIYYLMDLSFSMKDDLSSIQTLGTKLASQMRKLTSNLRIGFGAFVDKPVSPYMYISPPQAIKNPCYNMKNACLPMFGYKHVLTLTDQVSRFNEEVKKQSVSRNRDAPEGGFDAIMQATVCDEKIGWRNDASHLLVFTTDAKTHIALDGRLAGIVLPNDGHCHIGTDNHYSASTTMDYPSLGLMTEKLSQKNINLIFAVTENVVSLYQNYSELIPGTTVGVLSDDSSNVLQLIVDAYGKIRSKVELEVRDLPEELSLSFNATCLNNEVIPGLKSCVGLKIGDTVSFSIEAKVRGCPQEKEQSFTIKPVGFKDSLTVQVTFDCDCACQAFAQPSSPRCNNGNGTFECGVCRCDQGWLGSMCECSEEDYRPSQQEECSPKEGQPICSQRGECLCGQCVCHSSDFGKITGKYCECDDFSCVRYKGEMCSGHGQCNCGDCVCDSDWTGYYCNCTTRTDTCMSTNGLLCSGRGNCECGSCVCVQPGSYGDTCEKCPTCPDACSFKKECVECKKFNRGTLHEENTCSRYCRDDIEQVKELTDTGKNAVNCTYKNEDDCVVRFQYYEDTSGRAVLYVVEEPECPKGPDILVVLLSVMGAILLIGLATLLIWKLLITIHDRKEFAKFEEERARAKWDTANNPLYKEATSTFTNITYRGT
T1 sequence (P43406 31-885 limits assumed): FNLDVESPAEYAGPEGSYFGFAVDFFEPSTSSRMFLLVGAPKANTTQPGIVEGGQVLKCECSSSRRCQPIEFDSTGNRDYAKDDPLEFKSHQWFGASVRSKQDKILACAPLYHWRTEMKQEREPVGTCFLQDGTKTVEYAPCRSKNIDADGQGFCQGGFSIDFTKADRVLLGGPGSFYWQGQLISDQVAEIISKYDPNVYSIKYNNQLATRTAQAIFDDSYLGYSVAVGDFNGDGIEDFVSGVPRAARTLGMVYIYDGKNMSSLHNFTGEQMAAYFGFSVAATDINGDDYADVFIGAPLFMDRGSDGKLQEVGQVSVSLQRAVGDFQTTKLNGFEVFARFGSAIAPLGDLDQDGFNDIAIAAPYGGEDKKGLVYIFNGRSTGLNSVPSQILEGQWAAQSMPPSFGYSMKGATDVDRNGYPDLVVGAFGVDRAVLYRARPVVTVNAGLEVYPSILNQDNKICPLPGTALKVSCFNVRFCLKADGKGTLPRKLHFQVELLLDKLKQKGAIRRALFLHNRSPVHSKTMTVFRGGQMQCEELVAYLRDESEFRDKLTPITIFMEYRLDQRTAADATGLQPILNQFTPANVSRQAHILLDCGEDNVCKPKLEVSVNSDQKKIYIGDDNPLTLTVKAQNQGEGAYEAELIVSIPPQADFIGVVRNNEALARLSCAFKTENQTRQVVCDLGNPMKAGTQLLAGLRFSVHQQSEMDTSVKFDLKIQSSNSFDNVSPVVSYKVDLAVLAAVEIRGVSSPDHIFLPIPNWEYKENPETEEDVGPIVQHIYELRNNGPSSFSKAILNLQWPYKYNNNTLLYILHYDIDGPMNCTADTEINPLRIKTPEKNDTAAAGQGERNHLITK
T1 sequence (P43406 887-1044 partner limits assumed): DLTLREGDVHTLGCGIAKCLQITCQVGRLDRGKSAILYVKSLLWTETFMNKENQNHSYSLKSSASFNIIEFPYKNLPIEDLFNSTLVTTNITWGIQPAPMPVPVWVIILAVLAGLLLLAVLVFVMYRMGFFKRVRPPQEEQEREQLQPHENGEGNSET
Kind of test: Western blot of β3 integrin phosphorylation in primary CD8+ T-cells after peptide stimulation. Format: cell-based, murine. Conditions: primary CD8+ T-cells from melanoma bearing mice, compared to control peptide CP. Here is the method:
FIGS. 2A-2F. Detection of RGDKGE (SEQ ID NO: 1)-containing collagen peptide in malignant tumor cells and expression of key signaling molecules in T-cells. Briefly, whole cell lysates and serum free concentrated conditioned medium was prepared from tumor cells lines. FIG. 2A. Western blot analysis of whole cell lysates from human C8161 and murine B16F10 melanoma cells for the expression of the low molecular weight 16 kDa RGDKGE (SEQ ID NO: 1)-containing collagen peptide (XL313) or actin as a loading control. FIG. 2B. […]
Whole cell and CAM tissue lysates were collected in RIPA buffer (10 mM Tris-HCl, pH 8.0; 1 mM EDTA; 0.5 mM EGTA; 1% Triton X-100; 0.1% Sodium Deoxycholate; 0.1% SDS; 140 mM NaCl) supplemented with 1× protease inhibitor and 1× phosphatase inhibitor and were run on polyacrylamide gels using denaturing conditions. […] Western blot bands were quantified using Image J software based on pixel intensity.
We previously made the surprising observation that a small bioactive collagen peptide containing the core amino acid sequence RGDKGE (SEQ ID NO: 1) could be generated inside a subset of M2-like activated macrophages as well as a variety of other malignant tumor cells, and then actively secreted outside the cells (11-13). Importantly, minimal levels of this soluble collagen peptide was detected in normal cells (13). […]

“QGPRGDKGE (CQGPRGDKGEC; Synthetic: Synthetic collagen RGD containing peptide P-2) [Peptide P2, synthetic version of the soluble RGDKGE-containing collagen peptide]”: the β3 integrin phosphorylation entry is reported as “enhanced β3 integrin phosphorylation”.
